# Laboratory results published in patent US20050282743A1, “Molecular interactions in cells” (Arbor Vita Corporation, priority 2001, published 2005).
# T1: GST-DLG1 PDZ domain 2 (Homo sapiens), Q12959
# T1 chain: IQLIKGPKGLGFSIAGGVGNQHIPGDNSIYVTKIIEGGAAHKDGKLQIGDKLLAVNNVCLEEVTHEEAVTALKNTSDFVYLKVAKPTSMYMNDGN
# T2: GST-DLG2 PDZ domain 2 (Homo sapiens (Human)), Q15700
# T2 chain: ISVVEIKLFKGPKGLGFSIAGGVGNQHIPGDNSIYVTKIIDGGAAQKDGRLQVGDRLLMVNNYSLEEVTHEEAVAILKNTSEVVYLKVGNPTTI
# T3: GST-FLJ 10324 PDZ domain 1 [GST: P08515]
# T3 chain: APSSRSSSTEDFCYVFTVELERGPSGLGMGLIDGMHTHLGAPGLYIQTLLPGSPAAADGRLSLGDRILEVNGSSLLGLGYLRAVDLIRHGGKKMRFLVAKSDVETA
# T4: GST-LIM Protein PDZ domain 1 (Homo sapiens (Human)), Q96HC4
# T4 chain: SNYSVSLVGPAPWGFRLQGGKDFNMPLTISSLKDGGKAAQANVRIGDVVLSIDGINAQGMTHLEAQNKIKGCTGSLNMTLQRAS
# T5: GST-TIP1 PDZ domain 1 (Table 9 insert) (Homo sapiens (Human)), O14907
# T5 chain: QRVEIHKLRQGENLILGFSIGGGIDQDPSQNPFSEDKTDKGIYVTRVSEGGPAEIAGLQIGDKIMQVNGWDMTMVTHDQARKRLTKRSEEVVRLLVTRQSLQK
# T6: GST-APXL-1 PDZ domain 1 (Homo sapiens (Human)), Q13796
# T6 chain: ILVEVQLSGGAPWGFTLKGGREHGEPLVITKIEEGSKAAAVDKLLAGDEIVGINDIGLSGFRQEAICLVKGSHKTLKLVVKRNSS
# T7: GST-ZO-1 PDZ domain 1 (Rattus norvegicus (Rat)), A0A0G2
# T7 chain: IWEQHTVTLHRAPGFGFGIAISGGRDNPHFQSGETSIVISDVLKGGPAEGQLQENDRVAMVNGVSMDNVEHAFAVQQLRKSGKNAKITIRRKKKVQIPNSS
# Assays:
# [1] = target: GST-BAI-1 Associated Protein PDZ domain 2 (Mus musculus (Mouse)), Q6RHR9; experiment: G assay titration, PDZ 0.3 ug/ml
# Chain of GST-BAI-1 Associated Protein PDZ domain 2 (Mus musculus (Mouse)), Q6RHR9 (Q6RHR9 455-558): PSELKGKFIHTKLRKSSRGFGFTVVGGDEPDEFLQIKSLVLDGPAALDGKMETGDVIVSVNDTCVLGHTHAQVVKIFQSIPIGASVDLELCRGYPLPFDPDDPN
# [2] = target: GST-BAI-1 Associated Protein PDZ domain 4 (Homo sapiens (Human)), Q96QZ7; experiment: G assay titration, PDZ 0.3 ug/ml
# Chain of GST-BAI-1 Associated Protein PDZ domain 4 (Homo sapiens (Human)), Q96QZ7 (Q96QZ7 other isoform, or with tags, fused parts or gaps): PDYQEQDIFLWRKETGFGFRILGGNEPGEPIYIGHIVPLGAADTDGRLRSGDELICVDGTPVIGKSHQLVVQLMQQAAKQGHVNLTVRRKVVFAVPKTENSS
# [3] = target: T1, GST-DLG1 PDZ domain 2 (Homo sapiens), …; experiment: G assay titration, PDZ 0.3 ug/ml
# [4] = target: GST-Atrophin-1 Interacting Protein PDZ domain 1 (Rattus norvegicus (Rat)), O88382; experiment: G assay titration, PDZ 0.5 ug/ml
# Chain of GST-Atrophin-1 Interacting Protein PDZ domain 1 (Rattus norvegicus (Rat)), O88382 (O88382 408-511): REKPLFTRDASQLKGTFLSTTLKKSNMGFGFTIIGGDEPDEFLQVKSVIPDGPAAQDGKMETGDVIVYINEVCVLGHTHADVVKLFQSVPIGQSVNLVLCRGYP
# [5] = target: GST-BAI-1 Associated Protein PDZ domain 3 (Homo sapiens (Human)), Q96QZ7; experiment: G assay titration, PDZ 0.5 ug/ml
# Chain of GST-BAI-1 Associated Protein PDZ domain 3 (Homo sapiens (Human)), Q96QZ7 (Q96QZ7 other isoform, or with tags, fused parts or gaps): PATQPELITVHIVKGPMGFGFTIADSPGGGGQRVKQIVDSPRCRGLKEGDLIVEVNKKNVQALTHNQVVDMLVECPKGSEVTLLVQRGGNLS
# [6] = target: GST-DLG1 PDZ domain 1 (Homo sapiens), Q12959; experiment: G assay titration, PDZ 0.5 ug/ml
# [7] = target: T2, GST-DLG2 PDZ domain 2 (Homo sapiens …); experiment: G assay titration, PDZ 0.5 ug/ml
# [8] = target: T3, GST-FLJ 10324 PDZ domain 1 [GST: P08515]; experiment: G assay titration, PDZ 1 ug/ml
# [9] = target: GST-KIAA1634 PDZ domain 5 (Homo sapiens (Human)), Q5TCQ9; experiment: G assay titration, PDZ 1 ug/ml
# Chain of GST-KIAA1634 PDZ domain 5 (Homo sapiens (Human)), Q5TCQ9 (Q5TCQ9 other isoform, or with tags, fused parts or gaps): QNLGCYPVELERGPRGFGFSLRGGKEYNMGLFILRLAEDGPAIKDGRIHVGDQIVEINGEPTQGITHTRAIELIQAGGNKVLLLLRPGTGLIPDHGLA
# [10] = target: T4, GST-LIM Protein PDZ domain 1 (Homo …); experiment: G assay titration, PDZ 1 ug/ml
# [11] = target: T5, GST-TIP1 PDZ domain 1 (Table 9 insert) …; experiment: G assay titration, PDZ 0.5 ug/ml
# [12] = target: T6, GST-APXL-1 PDZ domain 1 (Homo sapiens …); experiment: G assay titration, PDZ 0.5 ug/ml
# [13] = target: T7, GST-ZO-1 PDZ domain 1 (Rattus …); experiment: G assay titration, PDZ 5 ug/ml
binder,measurement,setting,value
VGTLLLERVIFPSVKIATLV (modifications not checked) [AdenoE4 typ9],Kd,[1],20 nM
same,Kd,[2],100 nM
same,Kd,[3],30 nM
same,Kd,[4],20 nM
same,Kd,[5],75 nM
same,Kd,[6],100 nM
same,Kd,[7],50 nM
KTMPAAMYRLLTAQEQPVYI (modifications not checked) [MINT-1],Kd,[8],1000 nM
VPGALDYAAFSSALYGESDL (modifications not checked) [a-actinin 2],Kd,[9],2000 nM
same,Kd,[10],2000 nM
same,Kd,[11],1000 nM
PIPAGGCTFSGIFPTLTSPL (modifications not checked) [KIA 1481],Kd,[12],600 nM
ILNSIQVMRAQMNQIQSVEV (modifications not checked) [ephrin B2],Kd,[13],6000 nM
